In publication PMC6542541, “Broadly neutralizing antibodies from an individual that naturally cleared multiple hepatitis C virus infections uncover molecular determinants for E2 targeting and vaccine design” (PLoS Pathogens, 2019):

Legend:
[1] = biological target: HMAb 212.1.1; test: global alanine scanning epitope mapping; conditions: antibody at 2 μg/ml
[2] = biological target: HMAb CBH-5; test: global alanine scanning epitope mapping; conditions: antibody at 1 μg/ml
[3] = biological target: HMAb CBH-7; test: global alanine scanning epitope mapping; conditions: antibody at 1 μg/ml
[4] = biological target: HMAb HC-11; test: global alanine scanning epitope mapping; conditions: antibody at 1 μg/ml
[5] = biological target: HC-1; test: global alanine scanning epitope mapping; conditions: antibody at 1 μg/ml
[6] = biological target: HC84.26; test: global alanine scanning epitope mapping; conditions: antibody at 1 μg/ml
[7] = biological target: H77C 1a recombinant E1E2 (hepatitis C virus genotype 1a, isolate H77C) (UniProt P27958)
[8] = biological target: H77C 1a recombinant E1E2 (hepatitis C virus genotype 1a, isolate H77C) (UniProt P27958); remark: listed apart in the source
[9] = biological target: T1, complex of Hepatitis C virus genotype 1a P27958 (hepatitis C virus genotype 1a, isolate …, UniProt P27958); test: ELISA; blocking of E2 binding to CD81-LEL: HMAb at 10 μg/ml pre-incubated with H77C 1a E1E2 lysate (1 μg/ml E2) for 20 min at 4°C, then added to CD81-LEL wells; conditions: one partner purified
T1 construct: envelope glycoprotein E1, cut product of the HCV polyprotein, genotype 1a isolate H77C; envelope glycoprotein E2, cut product of the HCV polyprotein, genotype 1a isolate H77C; residue numbers count on the H77C polyprotein; also called wt 1a H77C E1E2; 1a H77C E2

Molecule: H77C 1a recombinant E1E2 (from UniProt P27958) F442A
- percent of parent [1]: 148 % WT
- percent of parent [2]: 1 % WT
- percent of parent [3]: 113 % WT
- percent of parent [4]: 1 % WT

Molecule: H77C 1a recombinant E1E2 (from UniProt P27958) T534A
- percent of parent [5]: 88 % WT
- percent of parent [6]: 116 % WT
- percent of parent [1]: 162 % WT
- percent of parent [2]: 125 % WT
- percent of parent [3]: 101 % WT
- percent of parent [4]: 83 % WT

Molecule: H77C 1a recombinant E1E2 (from UniProt P27958) R639A
- percent of parent [5]: 100 % WT
- percent of parent [6]: 87 % WT
- percent of parent [1]: 88 % WT
- percent of parent [2]: 48 % WT
- percent of parent [3]: 86 % WT
- percent of parent [4]: 76 % WT

Molecule: H77C 1a recombinant E1E2 (from UniProt P27958) D533A
- percent of parent [5]: 73 % WT
- percent of parent [6]: 93 % WT
- percent of parent [1]: 99 % WT
- percent of parent [2]: 54 % WT
- percent of parent [3]: 77 % WT
- percent of parent [4]: 66 % WT

Molecule: H77C 1a recombinant E1E2 (from UniProt P27958) A439G
- percent of parent [5]: 83 % WT
- percent of parent [6]: 108 % WT
- percent of parent [1]: 84 % WT
- percent of parent [2]: 53 % WT

Molecule: H77C 1a recombinant E1E2 (from UniProt P27958) T435A
- percent of parent [5]: 67 % WT
- percent of parent [6]: 117 % WT
- percent of parent [1]: 86 % WT
- percent of parent [2]: 46 % WT
- percent of parent [3]: 89 % WT
- percent of parent [4]: 49 % WT

Molecule: H77C 1a recombinant E1E2 (from UniProt P27958) N434A
- percent of parent [5]: 102 % WT
- percent of parent [6]: 97 % WT
- percent of parent [1]: 18 % WT
- percent of parent [2]: 92 % WT
- percent of parent [4]: 88 % WT

Molecule: H77C 1a recombinant E1E2 (from UniProt P27958) T425A
- percent of parent [5]: 51 % WT
- percent of parent [6]: 69 % WT
- percent of parent [1]: 18 % WT
- percent of parent [2]: 1 % WT
- percent of parent [3]: 101 % WT
- percent of parent [4]: 10 % WT

Molecule: H77C 1a recombinant E1E2 (from UniProt P27958) N532A
- percent of parent [5]: 82 % WT
- percent of parent [6]: 108 % WT
- percent of parent [1]: 152 % WT
- percent of parent [2]: 108 % WT
- percent of parent [3]: 101 % WT
- percent of parent [4]: 71 % WT

Molecule: H77C 1a recombinant E1E2 (from UniProt P27958) L433A
- percent of parent [5]: 97 % WT
- percent of parent [6]: 122 % WT
- percent of parent [1]: 2 % WT
- percent of parent [2]: 128 % WT
- percent of parent [3]: 103 % WT
- percent of parent [4]: 103 % WT

Molecule: H77C 1a recombinant E1E2 (from UniProt P27958) Y443A
- percent of parent [5]: 87 % WT
- percent of parent [6]: 52 % WT
- percent of parent [1]: 158 % WT
- percent of parent [2]: 0 % WT
- percent of parent [3]: 82 % WT
- percent of parent [4]: 1 % WT

Molecule: H77C 1a recombinant E1E2 (from UniProt P27958) G547A
- percent of parent [1]: 57 % WT
- percent of parent [2]: 30 % WT
- percent of parent [3]: 28 % WT
- percent of parent [4]: 36 % WT

Molecule: H77C 1a recombinant E1E2 (from UniProt P27958) N428A
- percent of parent [5]: 34 % WT
- percent of parent [6]: 74 % WT
- percent of parent [1]: 15 % WT
- percent of parent [2]: 0 % WT
- percent of parent [3]: 134 % WT
- percent of parent [4]: 7 % WT

Molecule: H77C 1a recombinant E1E2 (from UniProt P27958) G440A
- percent of parent [5]: 73 % WT
- percent of parent [6]: 82 % WT
- percent of parent [1]: 83 % WT
- percent of parent [2]: 86 % WT
- percent of parent [3]: 77 % WT

Molecule: H77C 1a recombinant E1E2 (from UniProt P27958) W549A
- percent of parent [1]: 66 % WT
- percent of parent [2]: 46 % WT
- percent of parent [3]: 5 % WT
- percent of parent [4]: 50 % WT

Molecule: H77C 1a recombinant E1E2 (from UniProt P27958) G530A
- percent of parent [5]: 14 % WT
- percent of parent [6]: 71 % WT
- percent of parent [1]: 9 % WT
- percent of parent [2]: 76 % WT
- percent of parent [4]: 3 % WT

Molecule: H77C 1a recombinant E1E2 (from UniProt P27958) L546A
- percent of parent [5]: 100 % WT
- percent of parent [6]: 100 % WT
- percent of parent [1]: 139 % WT
- percent of parent [2]: 92 % WT
- percent of parent [3]: 112 % WT
- percent of parent [4]: 92 % WT

Molecule: H77C 1a recombinant E1E2 (from UniProt P27958) L438A
- percent of parent [5]: 77 % WT
- percent of parent [6]: 122 % WT
- percent of parent [1]: 87 % WT
- percent of parent [2]: 4 % WT
- percent of parent [3]: 89 % WT
- percent of parent [4]: 1 % WT

Molecule: H77C 1a recombinant E1E2 (from UniProt P27958) D535A
- percent of parent [5]: 14 % WT
- percent of parent [1]: 6 % WT
- percent of parent [2]: 0 % WT
- percent of parent [3]: 116 % WT
- percent of parent [4]: 1 % WT

Molecule: H77C 1a recombinant E1E2 (from UniProt P27958) W437A
- percent of parent [5]: 67 % WT
- percent of parent [6]: 98 % WT
- percent of parent [1]: 58 % WT
- percent of parent [2]: 3 % WT
- percent of parent [4]: 0 % WT

Molecule: HMAb 212.1.1 (antibody)
- % neutralization of 1a H77C HCVpp at 20 μg/ml [7]: 89%
- % neutralization of H77 (1a) Core-NS2 HCVcc at 25 μg/ml (FFU reduction) [8]: 41%
- IC50 of neutralization of H77 (1a) Core-NS2 HCVcc (FFU reduction) [8]: 36 µg/mL

Molecule: H77C 1a recombinant E1E2 (from UniProt P27958) W529A
- percent of parent [5]: 0 % WT
- percent of parent [6]: 122 % WT
- percent of parent [1]: 9 % WT
- percent of parent [2]: 35 % WT
- percent of parent [3]: 187 % WT
- percent of parent [4]: 23 % WT

Molecule: H77C 1a recombinant E1E2 (from UniProt P27958) A426G
- percent of parent [5]: 35 % WT
- percent of parent [6]: 88 % WT
- percent of parent [1]: 8 % WT
- percent of parent [2]: 0 % WT
- percent of parent [3]: 253 % WT
- percent of parent [4]: 23 % WT

Molecule: H77C 1a recombinant E1E2 (from UniProt P27958) P545A
- percent of parent [5]: 78 % WT
- percent of parent [6]: 69 % WT
- percent of parent [1]: 70 % WT
- percent of parent [2]: 42 % WT
- percent of parent [3]: 42 % WT
- percent of parent [4]: 42 % WT

Molecule: H77C 1a recombinant E1E2 (from UniProt P27958) G436A
- percent of parent [5]: 73 % WT
- percent of parent [1]: 103 % WT
- percent of parent [2]: 11 % WT
- percent of parent [3]: 78 % WT
- percent of parent [4]: 0 % WT

Molecule: H77C 1a recombinant E1E2 (from UniProt P27958) C429A
- percent of parent [5]: 0 % WT
- percent of parent [6]: 24 % WT
- percent of parent [1]: 0 % WT
- percent of parent [2]: 2 % WT
- percent of parent [3]: 157 % WT
- percent of parent [4]: 0 % WT

Molecule: H77C 1a recombinant E1E2 (from UniProt P27958) N548A
- percent of parent [5]: 88 % WT
- percent of parent [6]: 85 % WT
- percent of parent [2]: 51 % WT
- percent of parent [4]: 70 % WT

Molecule: H77C 1a recombinant E1E2 (from UniProt P27958) L427A
- percent of parent [5]: 51 % WT
- percent of parent [6]: 100 % WT
- percent of parent [1]: 3 % WT
- percent of parent [2]: 6 % WT
- percent of parent [3]: 370 % WT
- percent of parent [4]: 26 % WT

Molecule: H77C 1a recombinant E1E2 (from UniProt P27958) P544A
- percent of parent [1]: 72 % WT
- percent of parent [2]: 45 % WT
- percent of parent [3]: 39 % WT
- percent of parent [4]: 41 % WT

Molecule: H77C 1a recombinant E1E2 (from UniProt P27958) S432A
- percent of parent [6]: 102 % WT
- percent of parent [1]: 108 % WT
- percent of parent [2]: 73 % WT
- percent of parent [3]: 104 % WT
- percent of parent [4]: 57 % WT

Molecule: H77C 1a recombinant E1E2 (from UniProt P27958) H638A
- percent of parent [5]: 47 % WT
- percent of parent [6]: 34 % WT
- percent of parent [1]: 26 % WT
- percent of parent [2]: 6 % WT
- percent of parent [3]: 42 % WT
- percent of parent [4]: 27 % WT

Molecule: H77C 1a recombinant E1E2 (from UniProt P27958) N430A
- percent of parent [5]: 39 % WT
- percent of parent [6]: 85 % WT
- percent of parent [1]: 143 % WT
- percent of parent [3]: 155 % WT

Molecule: H77C 1a recombinant E1E2 (from UniProt P27958) S424A
- percent of parent [5]: 53 % WT
- percent of parent [6]: 75 % WT
- percent of parent [1]: 41 % WT
- percent of parent [2]: 10 % WT
- percent of parent [3]: 163 % WT
- percent of parent [4]: 18 % WT

Molecule: H77C 1a recombinant E1E2 (from UniProt P27958) E431A
- percent of parent [5]: 97 % WT
- percent of parent [6]: 105 % WT
- percent of parent [1]: 147 % WT
- percent of parent [2]: 224 % WT
- percent of parent [3]: 101 % WT
- percent of parent [4]: 64 % WT

Molecule: H77C 1a recombinant E1E2 (from UniProt P27958) L441A
- percent of parent [5]: 85 % WT
- percent of parent [6]: 12 % WT
- percent of parent [1]: 92 % WT
- percent of parent [2]: 0 % WT
- percent of parent [3]: 100 % WT
- percent of parent [4]: 75 % WT

Molecule: H77C 1a recombinant E1E2 (from UniProt P27958) E637A
- percent of parent [5]: 246 % WT
- percent of parent [2]: 40 % WT
- percent of parent [3]: 145 % WT
- percent of parent [4]: 202 % WT

Molecule: H77C 1a recombinant E1E2 (from UniProt P27958) V636A
- percent of parent [5]: 89 % WT
- percent of parent [6]: 72 % WT
- percent of parent [1]: 77 % WT
- percent of parent [2]: 34 % WT
- percent of parent [4]: 63 % WT

B1: HMAb HC-11 (antibody, V domains shown)
VH: EVQLVESGAEVKKPGSSVKVSCKASGATFSSFIFSWVRQAPGQGPEWMGGIIPMFGTAKYAPRLQGRVTITADESTSTAYMDLSSLRFEDTAVYYCAMEVPGFCRGGSCSGYMDVWGKGTLVTVSP
VL: AAVLTQSPGTLSLSPGERATLSCRASHSVSSSNLAWYQQKPGQAPRLLMYGASRRATGIPDRFSGSGSGTDFTLTISRLEPEDFAVYYCQQYGSSPITFGQGTRLDIK
notes: germline IGHV1-69, 92% nucleotide identity; heavy chain CDR3; germline kappa 3-20, 96% nucleotide identity; light chain CDR3; also called domain B HMAb
- binding result [9]: binds
